Test results published in article PMC6881245.

Legend:
Complement C1q [1] = biological target: Complement C1q (UniProt P02745)
Complement C1q [2] = biological target: Complement C1q (UniProt P02745); assay: flow cytometry on cholesterol crystals; C1q (50 μg/ml in PBS, 1 h RT) bound to cholesterol crystals (1.6 mg/ml), washed; vWF 10 μg/ml in PBS added for 1 h at RT, washed; vWF detected with polyclonal rabbit anti-vWF and anti-rabbit IgG-AF647; BD Accuri 6; n = 5
Complement C1q [3] = biological target: Complement C1q (UniProt P02745); remark: listed apart in the source

Sequence of UniProt P02745 (P02745 23-245, chain 1 of 3): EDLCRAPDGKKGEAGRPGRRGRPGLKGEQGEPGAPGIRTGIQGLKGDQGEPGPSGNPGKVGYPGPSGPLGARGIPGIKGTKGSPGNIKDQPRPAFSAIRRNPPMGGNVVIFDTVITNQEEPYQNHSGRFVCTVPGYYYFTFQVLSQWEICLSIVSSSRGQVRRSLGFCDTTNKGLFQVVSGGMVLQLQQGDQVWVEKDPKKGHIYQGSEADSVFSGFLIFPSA
Sequence of UniProt P02745 (P02746 28-253, chain 2 of 3, further chain): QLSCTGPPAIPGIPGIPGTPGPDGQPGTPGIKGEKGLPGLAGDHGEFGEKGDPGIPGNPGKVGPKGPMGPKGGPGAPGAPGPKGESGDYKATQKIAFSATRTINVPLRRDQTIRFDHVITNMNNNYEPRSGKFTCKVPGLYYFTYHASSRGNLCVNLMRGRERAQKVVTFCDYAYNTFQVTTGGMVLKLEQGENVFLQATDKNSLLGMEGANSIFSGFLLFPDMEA
Sequence of UniProt P02745 (P02747 29-245, chain 3 of 3, further chain): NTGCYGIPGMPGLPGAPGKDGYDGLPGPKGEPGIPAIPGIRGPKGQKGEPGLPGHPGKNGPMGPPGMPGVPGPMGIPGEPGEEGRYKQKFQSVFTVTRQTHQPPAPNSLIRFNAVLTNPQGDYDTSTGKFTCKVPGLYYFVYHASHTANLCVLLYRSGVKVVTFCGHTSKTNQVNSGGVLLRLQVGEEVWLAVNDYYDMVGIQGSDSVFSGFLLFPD

caspase-1 activity of HMDMs after 18 h with CC-C1q-vWF complexes, percent of CD11c+ cells in the FLICA+ gate; CC-C1q without vWF: 11.54% (7.29–28.38%) (Complement C1q [1]): 9.37% | median gMFI of vWF staining on CC-C1q (Complement C1q [2]): 115000 gMFI | early phagocytosis (30 min) of pHrodo-dyed CC-C1q-vWF complexes by HMDMs, percent of CD11c+ cells in the pHrodo Red Ester+ gate; CC-C1q without vWF: 62, 40% (49.05–68.78%) (Complement C1q [3]): 54.5% | late phagocytosis (18 h) of CC-C1q-vWF complexes by HMDMs, percent of CD11c+ cells in the SSC^high gate; CC-C1q without vWF: 24.05% (22.55–34.60%) (Complement C1q [3]): 13.7%
Substance: von Willebrand factor (from UniProt P04275 764-2813) (natural protein)
